Reference: patent US20240002516A1 (4B TECHNOLOGIES SUZHOU, published 2024)
Read-outs that look alike come from different tables or passages of the source.

B1: PHD49-01 (humanized muPHD49) (antibody, human IgG4, V domains shown)
VH: QVQLVQSGAEVKKPGSSVKVSCKASGYTFSSYWMQWVRQAPGQGLEWIGAIYPGDDDTIYTQKFKGRATLTADKSTSTAYMELSSLRSEDTAVYYCARNYDYQAWFAYWGQGTLVTVSS
VL: DIQMTQSPSSLSASVGDRVTITCSASSSVSYMYWYQQKPGKAPKPWIYLTSNLASGVPSRFSGSGSGTDYTLTISSLQPEDFATYYCQQWSSNPLTFGQGTKLEIK
B2: PHD48-01 (humanized muPHD48) (antibody, human IgG4, V domains shown)
VH: QVQLVQSGAEVKKPGASVKVSCKASGYSFTTYWMHWVRQAPGQGLEWIGTIYPGNSDSSNNQKFKGRATLTADTSTSTAYMELSSLRSEDTAVYYCTRFYYEDWYFDVWGQGTMVTVSS
VL: DIQMTQSPSSLSASVGDRVTITCSASSSVSYMYWFQQKPGKAPKPWIYRTSNLASGVPSRFSGSGSGTDYTLTISSLQPEDFATYYCQQYHSYPPTFGGGTKVEIK
B3: chi-PHD48 (the chimeric antibody derived from muPHD48) (antibody, V domains shown)
VH: EVQLQQSGTVLARPGASVKMSCKASGYSFTTYWMHWVKQRPGQGLEWIGTIYPGNSDSSNNQKFKGKAKLTAVTSASTAYMELSSLTNEDSAVYYCTRFYYEDWYFDVWGAGTTVTVSS
VL: QIVLTQSPAIMSASPGEKVTISCSASSSVSYMYWFQQKPGSSPKPWIYRTSNLASGVPARFSGSGSGTSYSLTISSMEAEDAATYYCQQYHSYPPTFGGGTKLEIK
notes: Chimeric: VH in the pCDNA3.4-hIgG4 vector and VL in the pCDNA3.4-hKappa vector (human IgG4 / human kappa constant regions)
B4: muPHD49 (antibody, V domains shown)
VH: QVQLQQSGAELARPGASVKLSCKASGYTFSSYWMQWVKQRPGQGLEWIGAIYPGDDDTIYTQKFKGKATLTADKSSSTAYMQLSSLASEDSAVYYCARNYDYQAWFAYWGQGTLVTVSA
VL: QIVLTQSPALMSASPGEKVTMTCSASSSVSYMYWYQQKPRSSPKPWIYLTSNLASGVPARFSGSGSGTSYSLTISSMEAEDAATYYCQQWSSNPLTFGAGTKLELK
notes: Mouse hybridoma monoclonal antibody; also called muPHID49
B5: chi-PHD49 (antibody, V domains shown)
VH: QVQLQQSGAELARPGASVKLSCKASGYTFSSYWMQWVKQRPGQGLEWIGAIYPGDDDTIYTQKFKGKATLTADKSSSTAYMQLSSLASEDSAVYYCARNYDYQAWFAYWGQGTLVTVSA
VL: QIVLTQSPALMSASPGEKVTMTCSASSSVSYMYWYQQKPRSSPKPWIYLTSNLASGVPARFSGSGSGTSYSLTISSMEAEDAATYYCQQWSSNPLTFGAGTKLELK
notes: Chimeric: human IgG4 / human kappa constant regions (pCDNA3.4-hIgG4 and pCDNA3.4-hKappa vectors)
B6: control antibody pAb01 (antibody, V domains shown)
VH: EVQLVESGGGLVKPGGSLRLSCAASGFTFSGVSINWVRQAPGKGLEWVSSETTSSGTIYYADSVKGRFTISRDNAKNSLYLQMNSLRAEDTAVYYCARSYYYGMDVWGQGTTVTVS
VL: DIVMTQTPLSSPVTLGQPASISCRSSQSLVHRNGNTYLSWLQQRPGQPPRLLIYKISNRFSGVPDRFSGSGAGTDFTLKISRVEAEDVGVYYCMQARQFPLTFGGGTKVEIK

What was measured:
[1] = biological target: T1, human TrkA on CellSensor TrkA-NFAT-bla CHO-K1 cells (human, UniProt P04629 33-796); assay: FACS on cells expressing human TrkA (FIG. 5A)
T1 construct: whole, on cells; Bought cell line; also called cells overexpressing human TrkA

[2] = biological target: T1, human TrkA on CellSensor TrkA-NFAT-bla …; assay: cell-based or functional assay
[3] = biological target: T1, human TrkA on CellSensor TrkA-NFAT-bla …; assay: cell-based or functional assay; remark: listed apart in the source
[4] = biological target: T2, extracellular domain (ECD) of human TrkA protein, N-terminal flag tag and C-terminal His tag (PHA) (human, UniProt P04629 33-423); assay: BLI (Octet Red384), antibody captured on anti-human Fc AHQ tips, antigen 100 nM
T2 construct: Made in 293-F cells and purified by IMAC; also called TrkA ECD protein; TrkA (ECD); not shown: flag tag at the N-terminus (after the signal peptide); His tag at the C-terminus
Protocol: (§1) The bio-layer interferometry (BLI) method was used to determine the affinities of the antibodies, employing Octet Red384. Briefly, anti-human Fc-coated biosensor AHQ tips (ForteBio) were put into PBS with 0.1% w/v bovine serum albumin and 0.05% Tween-20 for a minimum of 10 min in the pre-wetting plate. The purified antibodies (100 nM in PBS with 0.1% bovine serum albumin and 0.05% Tween-20 (assay buffer)) were captured on AHQ biosensors (ForteBio) at a level of about 1 nm. The loaded biosensors were washed with an assay buffer to remove any unbound protein. Then, the association rates, dissociation rates and response were measured, using an antigen of 100 nM (in PBS with 0.1% bovine serum albumin and 0.05% Tween-20).

[5] = biological target: T2, extracellular domain (ECD) of human …; assay: BLI (Octet Red384), as in Example 4
Protocol: as §1
Two rounds of humanizations were further performed. […] In the second round, many other variants were further constructed (including several mutations in the CDR sequences). Quickchange based site-directed mutagenesis or overlap PCR were performed to create expression plasmid of new versions of 2nd round humanized antibodies. All recombinant antibodies were expressed and purified as described in Example 1, then measured antigen binding affinity using BLI technology with the Octet Red384 instrument as mentioned above. To compare the functional activity of humanized antibodies with chimeric antibodies, NFAT assay was also performed.

[6] = biological target: T1, human TrkA on CellSensor TrkA-NFAT-bla …; assay: cell-based or functional assay; remark: listed apart in the source
[7] = biological target: T1, human TrkA on CellSensor TrkA-NFAT-bla …; assay: FACS on cells expressing human TrkA (FIG. 4A)
[8] = biological target: T2, extracellular domain (ECD) of human …; assay: SPR (BIAcore T200), antibody on protein G chip, PHA 0.625-20 nM injected
Protocol: The binding kinetics and affinities of the humanized antibodies were determined using a BIAcoreT200™ SPR system. Approximately 30 RU of the humanized antibody was immobilized on a protein G sensor chip and serial 2-fold dilutions of the PHA (0.625-20 nM) in 1×HBS-EP+ buffer were injected over the antibody-bound surface at a flow rate of 30 μl/min.

[9] = biological target: T1, human TrkA on CellSensor TrkA-NFAT-bla …; assay: FACS on CellSensor TrkA-NFAT-bla CHO-K1 cells (human TrkA), APC goat anti-mouse IgG; y axis without label
Protocol: (§2) The ELISA-positive antibody producing clones were further verified by fluorescence-activated cell sorting (FACS) using a conventional method. Briefly, CellSensor® TrkA-NFAT-bla CHO-K1 cells (cells overexpressing human TrkA) were stained with anti-TrkA antibody in U-bottom 96-well plates. The cells were resuspended to 2×10⁶ cells/ml in ice cold PBS. The diluted solutions of primary and secondary antibodies were prepared, and 100 μl of the diluted primary antibody was added in each well, and incubated for 1 hours at 4° C. in the dark. The cells were washed for 2 times by centrifugation at 2500 rpm for 3 min and resuspended in ice cold PBS. The APC Goat anti-Mouse IgG was diluted in cold PBS at the […] and then the cells were resuspended in 100 μl of this solution. The cells were washed for 2 times by centrifugation at 2500 rpm for 3 min and resuspended in 100 μl ice cold PBS. The cell suspension was stored immediately at 4° C. in the dark. The cells were analyzed on the flow cytometer as soon as possible.

[10] = biological target: T2, extracellular domain (ECD) of human …; assay: indirect ELISA on coated PHA (human TrkA ECD, 1 ug/mL), anti-mouse IgG-HRP, OD450
Protocol: Hybridoma supernatants were initially screened with human TrkA by indirect ELISA. Briefly, purified PHA was diluted to a final concentration of 1 μg/mL in PBS buffer. 100 μL of the diluted antigen was added to each well of a 96-well plate, and incubated at 4° C. overnight. The plates were washed with PBST (PBS comprising 0.05% Tween-20, pH 7.4) for three times, then 200 μl/well of 2% bovine serum albumin (BSA) diluted in PBST was added and incubated at room temperature for 2 hours for blocking. The blocking solution was removed, and the plate was washed 3 times with 300 μl PBST. The diluted solutions of primary and secondary antibodies, along with substrate solution was prepared. 100 μl of diluted primary antibody was pipetted in each well and was incubated for 1 hour at room temperature. The content in the wells was removed and washed for 3 times with 300 μl PBST buffer. PBS was removed from the plates. 100 μl of diluted Peroxidase-AffiniPure Goat Anti-Mouse IgG was added in each well and incubated for 1 hour at 37° C. The content in the wells was removed and the wells were washed for 3 times with 300 μl PBST. 100 μl of TMB substrate solution was added to the wells. After sufficient color development, 100 μl of stop solution was added to the wells to terminate the reaction. Read the absorbance (OD: 450) of each well with a microplate reader and the data were analyzed.

[11] = biological target: T1, human TrkA on CellSensor TrkA-NFAT-bla …; assay: FACS on CellSensor TrkA-NFAT-bla CHO-K1 cells (human TrkA), APC goat anti-mouse IgG
Protocol: as §2

[12] = biological target: T2, extracellular domain (ECD) of human …; assay: affinity after affinity maturation; method not stated in Example 5; measured in the affinity maturation series of Example 5, not the humanization series of the 11th table
[13] = biological target: T2, extracellular domain (ECD) of human …; assay: affinity after affinity maturation; method not stated in Example 5
[14] = biological target: T2, extracellular domain (ECD) of human …; assay: BLI (Octet Red384), His-tagged TrkA ECD captured on Anti-Penta-HIS (HIS1K) biosensor, pAb01 as second antibody (90 s) after PHD48
Protocol: A bio-layer interferometry (BLI) method-based competition assay was performed on Octet Red384. Briefly, Anti-Penta-HIS (HIS1K) Biosensor (Fortebio) was put in PBS with 0.1% w/v bovine serum albumin and 0.05% Tween-20 (assay buffer) for a minimum of 10 min in the pre-wetting plate. The TrKA ECD protein at 100 nM in assay buffer was captured on the sensor to obtain a capture level of 0.3˜1 nm. The loaded biosensors were then equilibrated with an assay buffer for a minimum of 30s followed by binding of the first antibody for 90s. After the second equilibration, the second antibody was loaded for 90s.

T2 sequence (P04629 33-423): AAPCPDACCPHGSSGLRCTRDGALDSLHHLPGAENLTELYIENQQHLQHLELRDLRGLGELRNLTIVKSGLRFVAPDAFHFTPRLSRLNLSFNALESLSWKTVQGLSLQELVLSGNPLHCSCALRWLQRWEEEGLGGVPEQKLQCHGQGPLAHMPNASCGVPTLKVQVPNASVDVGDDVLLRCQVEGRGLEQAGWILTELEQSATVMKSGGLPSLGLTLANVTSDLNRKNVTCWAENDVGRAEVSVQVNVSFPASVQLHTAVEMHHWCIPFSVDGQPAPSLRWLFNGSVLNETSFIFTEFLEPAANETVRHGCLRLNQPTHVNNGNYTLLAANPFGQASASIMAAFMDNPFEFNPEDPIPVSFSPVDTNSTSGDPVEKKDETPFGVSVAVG
T1 sequence (P04629 33-796 limits assumed, form in doubt): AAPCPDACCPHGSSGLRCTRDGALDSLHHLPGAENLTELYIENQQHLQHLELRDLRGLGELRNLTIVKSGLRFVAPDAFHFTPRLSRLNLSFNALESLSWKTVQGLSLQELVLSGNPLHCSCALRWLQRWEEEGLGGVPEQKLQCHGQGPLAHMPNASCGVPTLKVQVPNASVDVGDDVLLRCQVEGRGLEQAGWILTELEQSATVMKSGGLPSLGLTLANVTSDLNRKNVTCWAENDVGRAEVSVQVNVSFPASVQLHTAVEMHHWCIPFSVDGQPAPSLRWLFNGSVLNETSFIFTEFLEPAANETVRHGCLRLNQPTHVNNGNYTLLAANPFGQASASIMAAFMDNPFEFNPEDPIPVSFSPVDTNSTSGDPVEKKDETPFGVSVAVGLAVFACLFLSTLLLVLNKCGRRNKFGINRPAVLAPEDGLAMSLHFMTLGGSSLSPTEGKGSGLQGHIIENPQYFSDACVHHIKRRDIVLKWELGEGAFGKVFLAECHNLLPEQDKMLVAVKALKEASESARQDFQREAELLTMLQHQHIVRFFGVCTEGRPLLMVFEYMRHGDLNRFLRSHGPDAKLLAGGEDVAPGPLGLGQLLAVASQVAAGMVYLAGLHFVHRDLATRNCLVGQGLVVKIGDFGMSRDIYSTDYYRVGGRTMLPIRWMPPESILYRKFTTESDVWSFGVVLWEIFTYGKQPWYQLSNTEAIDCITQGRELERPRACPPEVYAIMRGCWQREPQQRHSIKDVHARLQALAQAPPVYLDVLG

Binder	EC50 [1] [µg/mL]	Top; inhibition of NGF-induced TrkA activation in TrkA-NFAT-bla CHO-K1 reporter cells [2] [Response Ratio]	IC50 in NFAT assay [3] [nM]	Kd [4] [nM]	koff [4] [s⁻¹]	kon [4] [M⁻¹ s⁻¹]	Kd [5] [nM]	koff [5] [s⁻¹]	kon [5] [M⁻¹ s⁻¹]	Top; inhibition of NGF-induced TrkA activation in TrkA-NFAT-bla CHO-K1 reporter cells [6] [Response Ratio]	EC50 [7] [µg/mL]	Kd [8] [nM]	koff [8] [s⁻¹]	kon [8] [M⁻¹ s⁻¹]	also measured
B1	~0.198	1.1	~0.604	4.84	0.00098	203000									
B2				3.07	0.000634	207000	3.07	0.000634	207000	1.02	~0.142	2.34	0.000524	224000	IC50 in NFAT antagonistic assay [3]: ~0.345 nM
B3				5.33	0.00114	214000	2.8	0.000761	272000	1.1	0.112	4.06	0.00069	170000	IC50; inhibition of NGF-induced TrkA activation in TrkA-NFAT-bla CHO-K1 reporter cells [6]: 1.12 nM
B4		0.796	0.404												Top [9]: 173000; EC50 [10]: 1.07 nM; Top [10]: 1.94 OD450; EC50 [11]: 0.473 µg/mL
B5	0.157	1.04		1.79	0.000603	337000	3.62	0.000827	229000						Kd [12]: 3.04 nM; koff [13]: 0.000665 s⁻¹; kon [13]: 219000 M⁻¹ s⁻¹; EC50 (so labelled in the drawn table; a falling inhibition curve, the text calls this value IC50); inhibition of NGF-induced TrkA activation in TrkA-NFAT-bla CHO-K1 reporter cells [2]: 0.793 nM
B6															binding result [14]: binds
